Source: the supplement of paper PMC7125110
± gives the standard error. Fewer inactive variants are shown than the library holds.

B1: glmS ribozyme (parent)
chain: AUAAAAGCGCCAGAACUACAGAAAUGUAGUUGACGAGGAGGAGGUUUAUCGAAUUUUCGGCGGAUGCCUCCAAA

Experiments:
Conditions in all cases: with glucosamine-6-phosphate
[1] = variants of: B1; assay: self-cleavage kobs at 640 uM GlcN6P; higher = faster cleavage; RNA array
Summary of the method: (§1)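 Weighted Michaelis–Menten fits across concentrations supplied kcat and KM, based on kobs from one- or two-exponential decay fits to normalised per-tile medians. The data came from barcoded ribozyme variants transcribed in situ by E. coli RNA polymerase on sequenced MiSeq chips and tracked at 37 °C by a hybridised Cy3 probe. Glucosamine-6-phosphate (40 μM to 10 mM) in HEPES/KCl/Mg(OAc)2 buffer was flowed in.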

[2] = variants of: B1; assay: self-cleavage kobs at 2500 uM GlcN6P; higher = faster cleavage; RNA array
Summary of the method: as §1

[3] = variants of: B1; assay: self-cleavage kobs at 10000 uM GlcN6P; higher = faster cleavage; RNA array
Summary of the method: as §1

Variant	self-cleavage kobs at 640 uM GlcN6P [1] [s⁻¹]	self-cleavage kobs at 2500 uM GlcN6P [2] [s⁻¹]	self-cleavage kobs at 10000 uM GlcN6P [3] [s⁻¹]
U45G U56C	0.000204 ± 4.5e-05	0.000272 ± 7.1e-05	0.000987 ± 0.00015
G32A G43A G63A A64G	< 1e-05	< 1e-05	
G7U A39C U57G G63C C68U	< 1e-05	< 1e-05	
A6C C10U C11A U56C	< 1e-05	< 1e-05	
U30C U46G C70U	4.5e-05 ± 2e-05		
C10U C11G A14G C16A G41A G51U	< 1e-05		
G40U G44A C50G C71G	< 1e-05	< 1e-05	
G9A A14C A36G G37C A39U	< 1e-05		
G9U U55C G62U	< 1e-05		
C10U A15G G37A G38C A53U	< 1e-05		
C8G U57G C70U	< 1e-05	< 1e-05	
G9U G60A G66U	< 1e-05		
G41C U46G U54C C70G	0.00305 ± 0.00089	0.00908 ± 0.0027	
A6U G37C G40A	< 1e-05	< 1e-05	
C8U C10U A14U G43A	< 1e-05	< 1e-05	
C11A C16G A42U U56G C71U	< 1e-05	< 1e-05	
A12C U56G G66U	0.000122 ± 2e-05	0.000363 ± 8e-05	
G62C A64U G66U	< 1e-05	< 1e-05	
C11A A33G G63A G66U	< 1e-05		
G32C G40C U57G	< 1e-05		
G13U A39G C67A	9.82e-05 ± 3.9e-05		
C8A A33U U55G	< 1e-05		< 1e-05
U30G C34A U47A	< 1e-05		

Variant	self-cleavage kobs at 640 uM GlcN6P [1] [s⁻¹]	self-cleavage kobs at 2500 uM GlcN6P [2] [s⁻¹]	self-cleavage kobs at 10000 uM GlcN6P [3] [s⁻¹]
C8U U54C U55G	< 1e-05		
A6G G9A A33C A39U G41U A53U	< 1e-05		
G9C A15G G38C G60A	< 1e-05	< 1e-05	
G9C U31C C67U	< 1e-05	< 1e-05	
A42U G51C G59U	< 1e-05		
C10U C61A C67G C71G	0.000112 ± 3.5e-05	7.34e-05 ± 2.4e-05	
U31G C34G U65A	< 1e-05		
G60U C71A	< 1e-05	< 1e-05	< 1e-05
G59C G66C	< 1e-05		< 1e-05
U47A U54G C68G	6.48e-05 ± 1.2e-05	6.96e-05 ± 1.8e-05	
G29A G35U	< 1e-05	< 1e-05	< 1e-05
A14C G32A G40U G59C	< 1e-05		
G7C U31C G40C	< 1e-05	< 1e-05	
G7U C16A G37U U45G	< 1e-05		
G9U A12G A14C A53C	< 1e-05	< 1e-05	
G63A G66U C67U	< 1e-05	< 1e-05	
G29A U49A A53G C68A	7.05e-05 ± 2.9e-05		
G29A G40C	5.68e-05 ± 1.5e-05	0.000243 ± 4.7e-05	
G9C C16G G38U U65A	< 1e-05	< 1e-05	
C8U G13A U46A G51C G59A	< 1e-05		
U30A U31A G66A	0.000765 ± 0.00037		
G32C G51C A64G C70U	< 1e-05		
G41A U65C	< 1e-05		

Variant	self-cleavage kobs at 640 uM GlcN6P [1] [s⁻¹]	self-cleavage kobs at 2500 uM GlcN6P [2] [s⁻¹]	self-cleavage kobs at 10000 uM GlcN6P [3] [s⁻¹]
G44A C61A C71U	< 1e-05	< 1e-05	
G38U A52C A53C C68A C71U	0.000617 ± 0.00024		
C8A C16A G32C A42G	< 1e-05		
A14C U49G C68U	< 1e-05		
G29C A39C C61G	< 1e-05		
G40C U54C U56A	0.000313 ± 5.9e-05	0.000505 ± 0.00011	
C8U G13U A14U	< 1e-05		
C8A C50G C58G G62A	0.000111 ± 3.2e-05	0.000345 ± 8.6e-05	
G37A G41A C70U	0.00119 ± 0.00026	0.00206 ± 0.00053	
A14U A36U U69G	0.000169 ± 6.2e-05	0.000194 ± 5.8e-05	5.55e-05 ± 1.8e-05
U30C G63U C70G	3.84e-05 ± 1.8e-05		
A14G G29C A33C	< 1e-05		
G7U C70A	0.000596 ± 0.00023		
U49C U55A	< 1e-05	< 1e-05	
G41A G51C G63A C67A	< 1e-05		
A36U A48C C67G	< 1e-05	< 1e-05	
A33G G40U C58A C67A	< 1e-05	< 1e-05	
C10G C11A C58G G63U C68A	0.000138 ± 3.5e-05	0.000117 ± 3.3e-05	
A33C U47C U65G	< 1e-05	< 1e-05	
G7U C61U C68G	0.00114 ± 0.00049		
A6U G13A C71A	< 1e-05		
